In PMC2668148 one finds Km and Vmax data, which are given here for 1 substance.

The data set deals with N[C@@H](CCC(=O)Nc1ccc([N+](=O)[O-])cc1)C(=O)O. The data set is described as follows: purified protein. The conditions noted are these: apparent constant; hydrolysis.

On to “HpGT (Helicobacter pylori gamma-glutamyltranspeptidase) (Helicobacter pylori 26695)”, for which the Km worked out at 22.1 ± 1.4 µM and the Vmax was 5.18 µmol/min/mg.
